Measurements reported in paper doi:10.1101/2024.03.04.583282v1.

Legend:
Conditions in all cases: acCoA co-substrate, 50 mM Tris-HCl pH 8.5, 150 mM NaCl, 25 °C
purified protein [1] = substrate: NCCCC[C@H](N)C(=O)O; assay: purified protein
purified protein [2] = substrate: NCCCN; assay: purified protein
[3] = substrate: NCCCCN; assay: DTNB acetyltransferase assay; assay type: biochemical, Arabidopsis thaliana
[4] = substrate: NCCCNCCCCNCCCN; assay: DTNB acetyltransferase assay; assay type: biochemical, Arabidopsis thaliana
[5] = substrate: NCCSC[C@H](N)C(=O)O; assay: DTNB acetyltransferase assay; assay type: biochemical, Arabidopsis thaliana
purified protein [6] = substrate: NCCC[C@H](N)C(=O)O; assay: purified protein

B1: NATA2Δ (Arabidopsis thaliana) (protein)
chain: MFSRIRLATPSDVPFIHKLIHQMAVFERLTHLFSATESGLASTLFTSRPFQSFTVFLLEVSRSPFPATITSSPSPDFTPFFKTHNLDLPIDDPESYNFSPDMLNDVVVAGFVLFFPNYSSFLSKPGFYIEDIFVREPYRRKGFGSMLLTAVAKQAVKMGYGRVEWVVLDWNVNAIKFYEQMGAQILQEWRVCRLTGDALEAFDQVNI
- Km (purified protein [1]): 9480 ± 2530 µM
- kcat (purified protein [1]): 0.45 ± 0.10 s⁻¹
- Km (purified protein [2]): 370 ± 70 µM
- kcat (purified protein [2]): 1.46 ± 0.07 s⁻¹
- Km [3]: 2290 ± 480 µM
- kcat [3]: 1.04 ± 0.07 s⁻¹
- Km [4]: 1620 ± 350 µM
- kcat [4]: 1.49 ± 0.08 s⁻¹
- Km [5]: 330 ± 80 µM
- kcat [5]: 2.20 ± 0.10 s⁻¹

B2: NATA1Δ (Arabidopsis thaliana) (protein)
chain: TGHRMFSRIRLATPTDVPFIHKLIHQMAVFERLTHLFVATESGLASTLFNSRPFQAVTVFLLEISPSPFPTTHDASSPDFTPFLETHKVDLPIEDPDREKFLPDKLNDVVVAGFVLFFPNYPSFLAKQGFYIEDIFMREPYRRKGFGKLLLTAVAKQAVKLGVGRVEWIVIDWNVNAINFYEQMGAQVFKEWRLCRLTGDALQAIDKLNI
- Km (purified protein [1]): 12700 ± 3520 µM
- kcat (purified protein [1]): 0.58 ± 0.09 s⁻¹
- Km (purified protein [2]): 440 ± 120 µM
- kcat (purified protein [2]): 1.59 ± 0.08 s⁻¹
- Km (purified protein [6]): 4040 ± 820 µM
- kcat (purified protein [6]): 0.64 ± 0.05 s⁻¹
- Km [3]: 1900 ± 420 µM
- kcat [3]: 1.11 ± 0.12 s⁻¹
- Km [4]: 2260 ± 500 µM
- kcat [4]: 1.56 ± 0.10 s⁻¹
- Km [5]: 540 ± 130 µM
- kcat [5]: 2.04 ± 0.20 s⁻¹
